Measurements as given in article PMC6980381 (Science (New York, N.Y.), 2019).

Target: T1, Npl4 (untagged, of the Ufd1/Npl4 cofactor complex) (S. cerevisiae, UniProt P33755 1-580)
T1 sequence: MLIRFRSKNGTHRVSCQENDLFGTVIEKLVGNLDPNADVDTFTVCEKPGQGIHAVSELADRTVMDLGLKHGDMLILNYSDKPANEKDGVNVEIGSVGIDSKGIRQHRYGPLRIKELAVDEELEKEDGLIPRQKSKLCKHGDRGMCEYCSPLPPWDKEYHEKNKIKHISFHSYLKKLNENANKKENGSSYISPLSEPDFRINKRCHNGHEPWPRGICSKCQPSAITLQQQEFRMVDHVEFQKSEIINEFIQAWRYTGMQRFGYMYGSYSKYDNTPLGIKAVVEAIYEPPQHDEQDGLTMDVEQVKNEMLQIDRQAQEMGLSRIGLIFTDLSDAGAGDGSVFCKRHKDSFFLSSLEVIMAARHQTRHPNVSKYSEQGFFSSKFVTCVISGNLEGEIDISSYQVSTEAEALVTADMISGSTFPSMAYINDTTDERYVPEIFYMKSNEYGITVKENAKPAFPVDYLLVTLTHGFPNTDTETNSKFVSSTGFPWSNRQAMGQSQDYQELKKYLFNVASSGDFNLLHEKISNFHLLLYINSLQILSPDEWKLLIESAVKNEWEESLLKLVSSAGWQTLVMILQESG
Assay: cryo-EM structure

B1: Ufd1 (untagged, of the Ufd1/Npl4 cofactor complex) (natural protein, S. cerevisiae, UniProt P53044 1-361, looked up)
chain: MFSGFSSFGGGNGFVNMPQTFEEFFRCYPIAMMNDRIRKDDANFGGKIFLPPSALSKLSMLNIRYPMLFKLTANETGRVTHGGVLEFIAEEGRVYLPQWMMETLGIQPGSLLQISSTDVPLGQFVKLEPQSVDFLDISDPKAVLENVLRNFSTLTVDDVIEISYNGKTFKIKILEVKPESSSKSICVIETDLVTDFAPPVGYVEPDYKALKAQQDKEKKNSFGKGQVLDPSVLGQGSMSTRIDYAGIANSSRNKLSKFVGQGQNISGKAPKAEPKQDIKDMKITFDGEPAKLDLPEGQLFFGFPMVLPKEDEESAAGSKSSEQNFQGQGISLRKSNKRKTKSDHDSSKSKAPKSPEVIEID
binding result: binds
